Assay results reported in publication PMC8699718, “A structurally conserved site in AUP1 binds the E2 enzyme UBE2G2 and is essential for ER-associated degradation” (PLoS Biology, 2021).

How the values were obtained:
[1] = system: NHK (Null Hong Kong variant of alpha1-antitrypsin); test: CHX chase: NHK degradation in HT1080 AUP1 KO cells; format: cell-based, human; conditions: for restoration of NHK degradation: full-length or deleted AUP1-FLAG re-expressed in HT1080 AUP1 KO cells, CHX 50 μg/mL
Description: Fig 1 The G2BR of AUP1 is required for ERAD of NHK. (A) HT1080 or cells in which HRD1 was knocked out by CRISPR/Cas-9 (HRD1 KO) were transfected with plasmid encoding carboxyl-terminally HA-tagged NHK. Cells were treated with CHX for the indicated times to inhibit protein synthesis and NHK-HA degradation monitored by western blot. GFP and HSP60 serve as transfection efficiency and gel loading controls, respectively. (B) HT1080 or cells in which either AUP1 or gp78 was knocked out (AUP1 KO or gp78 KO) were transfected with NHK-HA and their degradation assessed. (C) AUP1 KO cells were transfected with NHK-HA and empty vector or plasmid encoding carboxyl-terminally FLAG-tagged AUP1 and NHK degradation assessed. (D) Indicated cells were transfected with plasmid encoding carboxyl-terminally MYC-tagged INSIG-1 and assessed for INSIG-1 degradation. (E) Schematic representation of AUP1 in the ER membrane and deletion mutants used in subsequent experiments. Amino acid residues are numbered spanning each domain. (F) AUP1 KO cells were transfected with NHK-HA and plasmids encoding the indicated FLAG-tagged AUP1 WT or deletion mutants and assessed for NHK degradation. (G) HEK293 (Parental) or HEK293 AUP1 KO cells were assessed for degradation of NHK-HA. (H) HEK293 AUP1 KO cells were assessed for NHK-HA degradation as in (F). Markers represent apparent molecular weight in kDa. The data underlying this figure can be found in S1 Data. aa, amino acid; AUP1, ancient ubiquitous protein 1; CHX, cycloheximide; ER, endoplasmic reticulum; ERAD, endoplasmic reticulum–associated degradation; G2BR, UBE2G2 Binding Region; KO, knockout; NHK, Null Hong Kong; WT, wild type.
(§1) Fig 6 Disruption of UBE2G2:G2BR^AUP1 interaction abrogates AUP1 function in cells. (A) GST or indicated GST-AUP1 fusions (aa 292 to 410, expression shown in Coomassie-stained gel) were immobilized on glutathione beads and binding to ^35S-UBE2G2 was assessed as in Fig 3A. Mutations include 2A (R382A/Q383A), 2E (R382E/Q383E), and 5E (R382E/Q383E/K390E/R398E/R400E). (B) AUP1 KO cells were transfected with NHK-HA and forms of full-length AUP1-FLAG with the indicated point mutations from (A) and NHK degradation assessed by CHX chase. (C) Binding assay performed as in (A) with AUP1 mutants predicted to disrupt hydrophobic interactions with UBE2G2. (D) Cellular assay performed as in (B) with AUP1-FLAG mutants that disrupt interactions with UBE2G2 in vitro in (C). The data underlying this figure can be found in S1 Data. aa, amino acid; AUP1, ancient ubiquitous protein 1; CHX, cycloheximide; G2BR, UBE2G2 Binding Region; KO, knockout; WT, wild type.
Fig 8 Recruitment of UBE2G2 to the ER membrane and activation by G2BR^AUP1 is required for ERAD. (A) HT1080 or AUP1 KO cells were transfected with NHK-HA and either empty vector or MYC-UBE2G2 and NHK turnover assessed by CHX chase. (B) AUP1 KO cells were transfected with NHK-HA and GFP fusions of either a scrambled G2BR sequence (SCR) or G2BR^AUP1 and NHK turnover and levels of endogenous UBE2G2 assessed. Luciferase and β-actin served as transfection efficiency and gel loading controls, respectively. (C) AUP1 KO cells were transfected with NHK-HA, MYC-UBE2G2, and either GFP-SCR or GFP-G2BR^AUP1 and NHK turnover assessed. (D) Membrane fractionation was performed on HT1080 or AUP1 KO cells transfected with either empty vector or AUP1-FLAG and localization of UBE2G2 assessed by western blotting. Localization of β-actin (cytosol) and Calnexin (ER membrane) were used as controls for cytosolic (C) and membrane (M) fractions, respectively. (E) Membrane fractionation of AUP1 KO cells transfected with either MYC-UBE2G2 or TM-UBE2G2. (F) HT1080 cells were transfected with TM-UBE2G2 and its localization assessed by confocal microscopy. Images shown are from an optical section after deconvolution. HA-tagged UBE2J2, an ER-localized E2, serves as an ER marker. […]

UBE2G2 = target: T1, UBE2G2 (Homo sapiens, UniProt P60604); test: GST pulldown of in vitro translated 35S-UBE2G2; format: binding; conditions: GST-AUP1 aa 292 to 410 on glutathione beads, ~3 pmol GST fusion, ~0.2 pmol E2, overnight 4°C, pH 7.4
T1 construct: made in house
T1 sequence (P60604 1-165): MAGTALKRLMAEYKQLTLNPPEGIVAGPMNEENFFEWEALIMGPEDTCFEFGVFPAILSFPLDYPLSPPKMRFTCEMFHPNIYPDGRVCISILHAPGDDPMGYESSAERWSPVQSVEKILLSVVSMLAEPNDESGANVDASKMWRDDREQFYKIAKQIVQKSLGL
Description: Fig 3 The AUP1–UBE2G2 interaction is required for ERAD. (A) Equimolar amounts of GST-AUP1 (aa 292 to 410) or GST were immobilized on glutathione beads and binding to the indicated in vitro translated ^35S-labeled E2s was assessed. Left panel is 5% of input used for binding. E2s are referred to by their unique alpha-numeric designation (e.g., UBE2G1 and UBE2J1). (B) HT1080 or UBE2G2 KO cells were transfected with INSIG-1-MYC and degradation assessed by CHX chase. […] (D) Cells were transfected with NHK-MYC and HA-ubiquitin and ubiquitination of NHK assessed following proteasome inhibition and IP (right panel). Left panel is 10% of total cell lysate used for IP, indicating no discernable change in total ubiquitination. (E) Levels of endogenous HRD1 were monitored by CHX chase in the indicated cell types. (F) Ubiquitination of endogenous HRD1 was assessed following IP with HRD1 antiserum. Arrow in upper panel indicates migration of unmodified HRD1. Control immunoprecipitates using rabbit serum are shown for comparison. The data underlying this figure can be found in S1 Data. aa, amino acid; AUP1, ancient ubiquitous protein 1; CHX, cycloheximide; ERAD, endoplasmic reticulum–associated degradation; IP, immunoprecipitation; KO, knockout; WT, wild type.
as §1
In vitro translated ^35S methionine-labeled E2s were generated using the E. coli T7-S30 Extract System (Promega) and excess ^35S methionine was removed by desalting twice with Zeba Spin Desalting Columns (Thermo Scientific). GST fusion proteins were quantified by Coomassie blue staining. Moreover, 0.1 μg of GST fusion protein (approximately 3 pmol) was prebound to GS 4B (GE Healthcare) and then incubated with approximately 10^5 cpm of ^35S methionine-labeled E2 (approximately 0.2 pmol) in 200 μl Binding Buffer (25 mM Tris-HCl, pH 7.4, 50 mM NaCl, 5 mM DTT, 0.5% IGEPAL CA-630) overnight at 4°C. Beads were extensively washed in Binding Buffer, resolved on Bis/Tris polyacrylamide gels under reducing conditions, dried and visualized on a Typhoon FLA 7000 (GE Healthcare). Binding was quantified using ImageQuant Software.

B1: AUP1-FLAG: full-length epitope-tagged AUP1 (protein, UniProt Q9Y679 1-410, looked up)
chain: MELPSGPGPERLFDSHRLPGDCFLLLVLLLYAPVGFCLLVLRLFLGIHVFLVSCALPDSVLRRFVVRTMCAVLGLVARQEDSGLRDHSVRVLISNHVTPFDHNIVNLLTTCSTPLLNSPPSFVCWSRGFMEMNGRGELVESLKRFCASTRLPPTPLLLFPEEEATNGREGLLRFSSWPFSIQDVVQPLTLQVQRPLVSVTVSDASWVSELLWSLFVPFTVYQVRWLRPVHRQLGEANEEFALRVQQLVAKELGQTGTRLTPADKAEHMKRQRHPRLRPQSAQSSFPPSPGPSPDVQLATLAQRVKEVLPHVPLGVIQRDLAKTGCVDLTITNLLEGAVAFMPEDITKGTQSLPTASASKFPSSGPVTPQPTALTFAKSSWARQESLQERKQALYEYARRRFTERRAQEAD
modifications: full-length FLAG tag
- restoration of NHK degradation [1]: restored NHK degradation

B2: 2E: AUP1 point mutant; GST-AUP1 aa 292 to 410 in vitro, full-length AUP1-FLAG in cells (protein, UniProt Q9Y679 1-410, looked up, variant R382E Q383E)
Lipid droplet-regulating VLDL …: MELPSGPGPERLFDSHRLPGDCFLLLVLLLYAPVGFCLLVLRLFLGIHVFLVSCALPDSVLRRFVVRTMCAVLGLVARQEDSGLRDHSVRVLISNHVTPFDHNIVNLLTTCSTPLLNSPPSFVCWSRGFMEMNGRGELVESLKRFCASTRLPPTPLLLFPEEEATNGREGLLRFSSWPFSIQDVVQPLTLQVQRPLVSVTVSDASWVSELLWSLFVPFTVYQVRWLRPVHRQLGEANEEFALRVQQLVAKELGQTGTRLTPADKAEHMKRQRHPRLRPQSAQSSFPPSPGPSPDVQLATLAQRVKEVLPHVPLGVIQRDLAKTGCVDLTITNLLEGAVAFMPEDITKGTQSLPTASASKFPSSGPVTPQPTALTFAKSSWAEEESLQERKQALYEYARRRFTERRAQEAD
modifications: GST or FLAG tag
notes: AUP1 point mutant; GST-AUP1 aa 292 to 410 in vitro, full-length AUP1-FLAG in cells
- binding to UBE2G2 (UBE2G2): failed to disrupt UBE2G2 binding
- restoration of NHK degradation [1]: restored degradation of NHK in the AUP1 KO cells, to a degree comparable to WT AUP1

B3: 2A: AUP1 point mutant R382A/Q383A (GST-AUP1 aa 292 to 410) (protein, UniProt Q9Y679 1-410, looked up, variant R382A Q383A)
Lipid droplet-regulating VLDL …: MELPSGPGPERLFDSHRLPGDCFLLLVLLLYAPVGFCLLVLRLFLGIHVFLVSCALPDSVLRRFVVRTMCAVLGLVARQEDSGLRDHSVRVLISNHVTPFDHNIVNLLTTCSTPLLNSPPSFVCWSRGFMEMNGRGELVESLKRFCASTRLPPTPLLLFPEEEATNGREGLLRFSSWPFSIQDVVQPLTLQVQRPLVSVTVSDASWVSELLWSLFVPFTVYQVRWLRPVHRQLGEANEEFALRVQQLVAKELGQTGTRLTPADKAEHMKRQRHPRLRPQSAQSSFPPSPGPSPDVQLATLAQRVKEVLPHVPLGVIQRDLAKTGCVDLTITNLLEGAVAFMPEDITKGTQSLPTASASKFPSSGPVTPQPTALTFAKSSWAAAESLQERKQALYEYARRRFTERRAQEAD
modifications: GST fusion aa 292-410
- binding to UBE2G2 (UBE2G2): unable to disrupt UBE2G2 binding

B4: 5E: AUP1 point mutant; GST-AUP1 aa 292 to 410 in vitro, full-length AUP1-FLAG in cells (protein, UniProt Q9Y679 1-410, looked up, variant R382E Q383E K390E R398E R400E)
Lipid droplet-regulating VLDL …: MELPSGPGPERLFDSHRLPGDCFLLLVLLLYAPVGFCLLVLRLFLGIHVFLVSCALPDSVLRRFVVRTMCAVLGLVARQEDSGLRDHSVRVLISNHVTPFDHNIVNLLTTCSTPLLNSPPSFVCWSRGFMEMNGRGELVESLKRFCASTRLPPTPLLLFPEEEATNGREGLLRFSSWPFSIQDVVQPLTLQVQRPLVSVTVSDASWVSELLWSLFVPFTVYQVRWLRPVHRQLGEANEEFALRVQQLVAKELGQTGTRLTPADKAEHMKRQRHPRLRPQSAQSSFPPSPGPSPDVQLATLAQRVKEVLPHVPLGVIQRDLAKTGCVDLTITNLLEGAVAFMPEDITKGTQSLPTASASKFPSSGPVTPQPTALTFAKSSWAEEESLQEREQALYEYAEREFTERRAQEAD
modifications: GST or FLAG tag
notes: as for B2
- binding to UBE2G2 (UBE2G2): loss of detectable UBE2G2 binding
- restoration of NHK degradation [1]: failed to restore NHK degradation

B5: A397D: AUP1 point mutant; GST-AUP1 aa 292 to 410 in vitro, full-length AUP1-FLAG in cells (protein)
chain: SPDVQLATLAQRVKEVLPHVPLGVIQRDLAKTGCVDLTITNLLEGAVAFMPEDITKGTQSLPTASASKFPSSGPVTPQPTALTFAKSSWARQESLQERKQALYEYDRRRFTERRAQEAD
modifications: left off: GST, end not stated, kept
notes: as for B2
- binding to UBE2G2 (UBE2G2): Binding was similarly lost
- restoration of NHK degradation [1]: failed to restore NHK degradation
- NHK degradation, doubled amount of plasmid ([1]; repeat transfection with doubled amount of mutant, reviewer response): unable to convince ourselves that there is any significant degradation

B6: Y394D: AUP1 point mutant (GST-AUP1 aa 292 to 410) (protein)
chain: SPDVQLATLAQRVKEVLPHVPLGVIQRDLAKTGCVDLTITNLLEGAVAFMPEDITKGTQSLPTASASKFPSSGPVTPQPTALTFAKSSWARQESLQERKQALDEYARRRFTERRAQEAD
modifications: left off: GST, end not stated, kept
- binding to UBE2G2 (UBE2G2): reduced binding
